PMC6910952 (Nature Communications, 2019)

Target: T1, GST-yNpl4 M574Q (Saccharomyces cerevisiae, UniProt P33755 1-580, M574Q)
T1 construct: Npl4 of Saccharomyces cerevisiae (yNpl4), full length; source: E. coli Rosetta (DE3) (pGEX-6P1), purified (Glutathione Sepharose FF, Resource Q); not shown: GST, N-terminal, kept
T1 sequence (looked up): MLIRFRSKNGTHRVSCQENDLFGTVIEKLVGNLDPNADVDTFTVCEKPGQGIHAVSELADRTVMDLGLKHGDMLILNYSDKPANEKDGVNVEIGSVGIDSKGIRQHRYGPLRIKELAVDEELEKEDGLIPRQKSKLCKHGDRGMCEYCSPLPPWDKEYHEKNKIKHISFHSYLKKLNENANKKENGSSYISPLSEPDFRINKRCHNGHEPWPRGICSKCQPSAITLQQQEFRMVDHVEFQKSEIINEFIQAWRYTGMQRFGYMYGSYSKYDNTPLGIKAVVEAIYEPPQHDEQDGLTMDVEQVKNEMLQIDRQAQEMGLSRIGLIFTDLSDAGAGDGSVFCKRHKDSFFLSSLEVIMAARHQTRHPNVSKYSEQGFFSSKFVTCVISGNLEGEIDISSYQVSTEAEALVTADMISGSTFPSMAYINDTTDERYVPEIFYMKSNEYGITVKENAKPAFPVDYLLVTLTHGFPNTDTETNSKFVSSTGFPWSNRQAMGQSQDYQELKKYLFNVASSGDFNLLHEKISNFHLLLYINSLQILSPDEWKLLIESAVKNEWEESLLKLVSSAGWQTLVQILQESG
Assay: pull-down; GST-yNpl4 (0.5 μM, wild type or mutant) on Glutathione Sepharose 4B beads, 1 h at room temperature with 0.5 μM yUfd1, 3 μM Cdc48 (0.5 μM hexamer) and 1 μg K48 chains in 100 μL 50 mM Tris-HCl pH 7.5, 100 mM NaCl, 10% glycerol, 0.1% Triton X-100; chains detected by anti-Ub immunoblot, proteins by Ponceau S
Conditions: both partners purified

B1: yUfd1 (full length, untagged) (natural protein, Saccharomyces cerevisiae, UniProt P53044 1-361, looked up)
chain: MFSGFSSFGGGNGFVNMPQTFEEFFRCYPIAMMNDRIRKDDANFGGKIFLPPSALSKLSMLNIRYPMLFKLTANETGRVTHGGVLEFIAEEGRVYLPQWMMETLGIQPGSLLQISSTDVPLGQFVKLEPQSVDFLDISDPKAVLENVLRNFSTLTVDDVIEISYNGKTFKIKILEVKPESSSKSICVIETDLVTDFAPPVGYVEPDYKALKAQQDKEKKNSFGKGQVLDPSVLGQGSMSTRIDYAGIANSSRNKLSKFVGQGQNISGKAPKAEPKQDIKDMKITFDGEPAKLDLPEGQLFFGFPMVLPKEDEESAAGSKSSEQNFQGQGISLRKSNKRKTKSDHDSSKSKAPKSPEVIEID
notes: Ufd1 of Saccharomyces cerevisiae (yUfd1), full length; codon-optimized synthetic cDNA; removal of GST by HRV3C is surmised; also called untagged Ufd1; source: E. coli Rosetta (DE3) (pGEX-6P1), purified
  binding result: binds
